The supplement of paper PMC11136658

Test system: peptide library, one residue held at a place counted from the Y acceptor
Test: relative phosphorylation of the sub-library (ratio to the mean residue at this position); higher = residue favoured
Outline: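 Peptide library mixtures, biotinylated and centred on Tyr, each fixed one residue at one position from −5 to +5. Purified recombinant kinases were incubated with them for 90 min in 384-well plates alongside 50 μM ATP and γ-32P-ATP, and the captured, rinsed peptides on streptavidin membranes were measured by phosphorimaging and ImageQuant. Normalization divided each position's intensities by the sum of its 18 randomized residues (16 for the Ser/Thr-free library) and multiplied by that number, so that values give phosphorylation relative to the mean randomized residue.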

Chain of FLT4, construct: aa800-end, human (P35916 800-1363, looked up): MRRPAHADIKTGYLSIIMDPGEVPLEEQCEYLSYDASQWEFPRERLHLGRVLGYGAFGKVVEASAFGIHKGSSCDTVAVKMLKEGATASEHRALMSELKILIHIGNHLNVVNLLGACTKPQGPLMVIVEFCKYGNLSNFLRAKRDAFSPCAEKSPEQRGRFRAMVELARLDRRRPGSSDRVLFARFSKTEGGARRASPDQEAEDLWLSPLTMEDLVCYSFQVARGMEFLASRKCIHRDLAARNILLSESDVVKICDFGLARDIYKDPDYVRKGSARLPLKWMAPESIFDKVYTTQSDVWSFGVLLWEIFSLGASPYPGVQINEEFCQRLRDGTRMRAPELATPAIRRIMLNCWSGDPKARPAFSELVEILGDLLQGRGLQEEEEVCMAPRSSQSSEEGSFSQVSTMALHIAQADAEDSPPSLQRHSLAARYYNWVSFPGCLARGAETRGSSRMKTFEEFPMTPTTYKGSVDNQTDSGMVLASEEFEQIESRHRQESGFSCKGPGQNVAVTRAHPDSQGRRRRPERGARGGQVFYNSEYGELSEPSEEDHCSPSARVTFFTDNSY
Chain of FRK, construct: aa208-end, human (P42685 208-505, looked up): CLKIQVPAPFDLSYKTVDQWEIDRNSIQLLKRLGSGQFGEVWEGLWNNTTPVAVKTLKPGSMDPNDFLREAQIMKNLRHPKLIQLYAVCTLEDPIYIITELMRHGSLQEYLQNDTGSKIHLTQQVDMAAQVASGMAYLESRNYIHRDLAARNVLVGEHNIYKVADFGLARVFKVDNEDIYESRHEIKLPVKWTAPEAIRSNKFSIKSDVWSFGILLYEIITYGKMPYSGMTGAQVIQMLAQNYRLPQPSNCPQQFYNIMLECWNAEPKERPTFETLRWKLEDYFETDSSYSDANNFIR
Chain of FLT3, construct: aa564-end, human (P36888 564-993, looked up): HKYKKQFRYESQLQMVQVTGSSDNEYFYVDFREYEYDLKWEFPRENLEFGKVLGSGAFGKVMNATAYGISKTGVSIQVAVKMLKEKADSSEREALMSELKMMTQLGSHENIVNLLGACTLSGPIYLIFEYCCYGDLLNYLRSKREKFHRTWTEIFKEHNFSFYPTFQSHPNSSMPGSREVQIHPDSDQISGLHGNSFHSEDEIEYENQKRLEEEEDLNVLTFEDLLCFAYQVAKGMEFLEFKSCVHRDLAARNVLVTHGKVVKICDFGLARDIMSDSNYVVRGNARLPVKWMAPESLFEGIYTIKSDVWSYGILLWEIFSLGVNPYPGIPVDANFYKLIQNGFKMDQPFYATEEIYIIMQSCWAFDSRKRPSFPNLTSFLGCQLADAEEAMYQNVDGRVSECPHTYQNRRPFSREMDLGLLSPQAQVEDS

FLT3, construct: aa564-end, human (from UniProt P36888)
relative phosphorylation
Settings	at +1	at +2	at +3	at +4	at +5	at -1	at -2	at -3	at -4	at -5
A fixed	0.822	0.62	0.639	0.968	0.955	0.749	0.806	0.766	1.05	0.952
D fixed	0.318	0.629	0.321	0.688	0.696	1.49	1.19	1.44	1.33	1.14
E fixed	0.643	0.89	0.227	0.826	0.771	1.2	1.15	1.69	1.56	1.15
F fixed	2.12	1.22	1.72	0.984	1.18	1.12	0.669	0.834	1	0.998
G fixed	0.431	0.368	0.603	0.904	1.19	0.574	0.972	0.786	1.21	1.16
H fixed	1.7	0.78	0.96	1	1.15	1.56	1.1	0.946	0.938	0.976
I fixed	1.6	1.19	1.52	1.05	0.961	1.25	0.954	0.688	0.913	0.871
K fixed	0.705	1.02	0.895	1.2	0.902	0.583	0.843	1	0.874	1.05
L fixed	1.21	1.2	1.3	0.878	1.07	1.18	0.88	0.878	1.02	0.997
M fixed	1.2	1	1.09	1.22	1.18	1.02	0.701	1.03	0.889	0.869
N fixed	0.455	1.1	0.54	0.807	0.864	1.25	1.23	1.46	0.951	1.36
P fixed	0.297	0.685	0.959	0.732	1.18	0.777	1.08	0.719	0.903	0.833
Q fixed	1	0.989	0.665	1.17	0.839	1.11	1.26	1.03	1.21	1.17
R fixed	1.01	1.63	1.6	1.89	1.06	0.639	0.957	1.27	0.924	1.43
S fixed	0.687	0.774	0.689	0.858	0.888	0.579	1.05	0.832	0.656	0.717
T fixed	0.77	0.814	0.706	0.741	1.22	0.778	0.894	0.708	0.614	0.612
V fixed	1.61	1.16	1.65	1.08	0.938	1.4	1.52	0.878	0.808	0.787
W fixed	1.43	1.94	1.91	1	0.961	0.746	0.75	1.04	1.15	0.928
pThr fixed	0.505	0.966	0.209	0.413	0.512	1.02	0.971	1.23	0.887	1.02
pTyr fixed	1.92	1.34	0.334	0.649	0.693	2.37	1.29	1.63	1.43	1.11

FLT4, construct: aa800-end, human (from UniProt P35916)
relative phosphorylation
Settings	at +1	at +2	at +3	at +4	at +5	at -1	at -2	at -3	at -4	at -5
A fixed	0.654	0.524	0.48	0.749	0.758	0.638	0.879	0.799	0.976	0.878
D fixed	0.367	0.647	0.424	0.913	1.12	2.84	1.25	1.3	1.05	1.04
E fixed	0.448	0.846	0.366	0.895	0.95	1.93	1.3	1.34	1.16	0.956
F fixed	2.19	1.57	3.08	1.07	1.31	1.09	0.748	1.04	1.14	1.12
G fixed	0.351	0.332	0.713	1.01	0.98	0.492	0.949	0.888	0.967	0.956
H fixed	1.08	1.05	0.595	1.33	1.12	1.24	1.16	1.16	1.08	1.27
I fixed	1.69	1.02	1.82	0.723	0.927	1.05	0.825	0.743	0.798	0.898
K fixed	0.643	0.864	0.396	1.16	1.01	0.439	0.921	0.964	0.992	1.08
L fixed	1.06	1.36	2.1	0.856	1.06	0.746	0.887	0.845	0.928	0.853
M fixed	1.02	1.07	1.98	0.98	0.991	0.655	0.962	0.853	0.837	0.953
N fixed	0.534	0.899	0.389	0.868	1.1	1.6	1.2	1.24	0.896	1.08
P fixed	0.571	0.471	0.588	1.17	1.04	0.583	0.945	0.8	0.915	0.822
Q fixed	1.25	0.896	0.59	1.09	0.967	1.15	1.16	1.11	1.08	1.07
R fixed	0.734	1.3	0.554	1.37	1.01	0.507	1.17	1.09	1.14	1.24
S fixed	0.599	0.684	0.506	0.92	0.829	0.657	1.08	1.09	0.843	0.921
T fixed	0.9	0.895	0.72	0.848	0.771	0.792	0.899	1.01	0.74	0.848
V fixed	2.12	0.975	1.4	0.751	0.774	0.892	0.766	0.712	0.844	0.777
W fixed	1.78	2.6	1.3	1.3	1.28	0.706	0.895	1.03	1.61	1.23
pThr fixed	0.737	1.37	0.521	0.8	1.08	1.47	0.969	1.13	1.03	0.981
pTyr fixed	2.51	2.96	0.651	0.9	0.834	3.16	1.24	1.38	1.29	1.06

FRK, construct: aa208-end, human (from UniProt P42685)
relative phosphorylation
Settings	at +1	at +2	at +3	at +4	at +5	at -1	at -2	at -3	at -4	at -5
A fixed	1.2	0.883	0.702	0.821	1.01	0.594	1.14	0.808	1.11	1.05
D fixed	0.563	0.473	0.24	0.573	0.93	0.836	1.19	1.92	1.14	1.12
E fixed	2.3	0.65	0.193	0.549	0.861	1.92	1.73	2.11	1.84	0.931
F fixed	1.03	1.6	1.95	1.38	1.21	0.878	0.642	0.892	1.03	1.07
G fixed	0.519	0.445	0.589	1.01	0.861	0.34	1.13	1.09	1.27	1.21
H fixed	0.91	0.758	0.741	1.32	1.15	0.777	1.02	0.902	0.913	0.993
I fixed	1.54	1.29	2.29	0.88	0.807	3.11	1.1	0.761	0.923	1.07
K fixed	0.343	0.897	0.475	1.23	1.06	0.27	0.568	0.631	0.719	0.858
L fixed	1.25	1.36	1.56	0.937	1.01	2.46	0.895	0.852	0.993	1.09
M fixed	1.76	0.966	1.3	1.22	0.914	1.13	0.67	0.895	0.929	1.12
N fixed	0.382	1.01	0.568	0.737	0.702	0.573	1.01	1.06	0.888	0.973
P fixed	0.116	0.601	0.87	0.971	1.15	0.452	1.3	1.04	1.1	1.11
Q fixed	1.23	0.748	0.469	0.965	0.974	0.664	1.01	0.838	1.06	0.966
R fixed	0.492	1.11	1.52	1.35	1.2	0.311	0.656	0.674	0.769	0.863
S fixed	0.919	1.09	0.642	0.863	1.01	0.433	1.03	0.938	0.792	0.836
T fixed	0.825	1.17	0.767	0.771	0.853	0.9	0.9	0.882	0.634	0.8
V fixed	1.18	1.21	1.71	0.865	0.934	1.9	1.3	0.778	0.793	0.825
W fixed	1.44	1.73	1.43	1.55	1.36	0.453	0.716	0.929	1.09	1.11
pThr fixed	1.09	1.58	0.217	0.462	0.638	2.06	1.3	1.28	0.91	0.853
pTyr fixed	4.6	2.61	0.782	0.659	0.692	1.06	1.28	1.7	1.57	0.867
